Reference: patent publication US20100184652A1 (NEW YORK BLOOD CENTER, published 2010)
Where no end group is shown, it is not given here. [ ]: non-standard residue; d: D form. pY = N[C@@H](Cc1ccc(OP(=O)(O)O)cc1)C(=O)O

Columns and labels:
[1] = target: T1, GST protein alone (UniProt P08515 1-218 = GST); assay: SPR (Biacore 3000), peptide-coupled chip
T1 construct: Control analyte in SPR; also called glutathione S-transferase
Procedure: The top photograph was incubated with a biotinylated GST-Abl-SH3 domain (GST-Abl-SH3-B). No binding to biotinylated GST (GST-B) was observed (middle panel). […] Panels B-D show binding to the c-Abl SH2 domain. […] No binding to the GST protein alone was observed (not shown). RU, response unit.
Surface Plasmon Resonance Assay. Surface plasmon resonance assay was performed using a Biacore 3000 instrument (BlAcore Inc., Piscataway, N.J.). Biotinylated 14-residue peptides, pY213 or Y213, were coupled to surface of streptavidin-coated (SA) biosensor chip (BIAcore Inc., Piscataway, N.J.). Binding reactions were done in HBS-EP buffer, containing 10 mM HEPES, pH 7.4, 150 mM NaCl, 3 mM EDTA, and 0.05% (v/v) surfactant P20. The surface was regenerated before each new injection using 50 mM NaOH and 1M NaCl. The Biacore instrument was programmed to perform a series of binding assays with increasing concentrations of GST Abl SH2 polypeptide over the same regenerated surface. Sensograms (plots of changes in response unit on the surface as a function of time) derived were analyzed using the software BIAeval 3.0.

[2] = target: T2, biotinylated GST (UniProt P08515 1-218 = GST, biotinylated (sites not given)); assay: blot overlay with biotinylated GST
T2 construct: also called GST-B
T2 sequence (P08515 whole entry): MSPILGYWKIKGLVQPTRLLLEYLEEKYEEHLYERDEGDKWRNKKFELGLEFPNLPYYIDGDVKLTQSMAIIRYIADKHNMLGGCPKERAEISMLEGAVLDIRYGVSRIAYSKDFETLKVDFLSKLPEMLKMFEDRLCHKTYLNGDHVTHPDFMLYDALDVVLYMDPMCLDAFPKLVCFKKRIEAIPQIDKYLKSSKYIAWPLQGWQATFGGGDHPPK
Procedure: FIG. 2 is graphs and photographs of western blots showing the identification of the minimal binding region of c-Abl SH3 and SH2 domains in the N-terminus of Abi1. […] Recombinant GST fusion polypeptides containing the N-terminal terminal region of Abi1/Hsshb3p1 were separated on SDS polyacrylamide gels and transferred onto a nitrocellulose membrane. […] The top photograph was incubated with a biotinylated GST-Abl-SH3 domain (GST-Abl-SH3-B). No binding to biotinylated GST (GST-B) was observed (middle panel). […] Panels B-D show binding to the c-Abl SH2 domain. […] No binding to the GST protein alone was observed (not shown). RU, response unit.

T1 sequence (P08515 whole entry): as above

| binding result [1] | binding result [2] | Binder |
| --- | --- | --- |
| no binding | – | VKPPTVPND[pY]MTSP (also: biotinylated (site not given here), Biotinylated and coupled to a streptavidin chip in SPR; also called phosphopeptide pY213) [pY213 peptide (14-residue Abi1 peptide containing phosphorylated tyrosine 213)] |
| – | no binding | GST fusion polypeptide of Abi1 N1-172 (other, not shown: glutathione S-transferase (GST) from pGEX-2T) MAELQMLLEEEIPSGKRALIESYQNLTRVADYCENNYIQATDKRKALEETKAYTTQSLASVAYQINALANNVLQLLDIQASQLRRMESSINHISQTVDIHKEKVARREIGILTTNKNTSRTHKIIAPANMERPVRYIRKPIDYTVLDDVGHGVKWLKAKHGNNQPARTGTLS |
| – | no binding | GST fusion polypeptide of Abi1 N1-187 (other, not shown: glutathione S-transferase (GST) from pGEX-2T) MAELQMLLEEEIPSGKRALIESYQNLTRVADYCENNYIQATDKRKALEETKAYTTQSLASVAYQINALANNVLQLLDIQASQLRRMESSINHISQTVDIHKEKVARREIGILTTNKNTSRTHKIIAPANMERPVRYIRKPIDYTVLDDVGHGVKWLKAKHGNNQPARTGTLSRTNPPTQKPPSPPMS |
